Results taken from IntAct's records for PubMed 22495310.

B1: CREB-regulated transcription coactivator 2 (Mus musculus), Q3U182 (parent)
chain: MATSGANGPGSATASASNPRKFSEKIALQKQRQAEETAAFEEVMMDIGSTRLQAQKLRLAYTRSSHYGGSLPNVNQIGCGLAEFQSPLHSPLDSSRSTRHHGLVERVQRDARRMVSPLRRYPRHIDSSPYSPAYLSPPPESGWRRMMPWGNLPAEKGQLFRLPSALNRTSSDSALHTSVMNPNPQDTYPGPTPPSVLPSRRGGGFLDGEMDAKVPAIEENVVDDKHLLKPWDAKKLSSSSSRPRSCEVPGINIFPSPDQPANVPVLPPAMNTGGSLPDLTNLHFPPPLPTPLDPEETVYPSLSGGNSTTNLTHTMTHLGISGGLGLGPSYDVPGLHSPLSHPSLQSSLSNPNLQASLSSPQPQLQGSHSHPSLPASSLAHHALPTTSLGHPSLSAPALSSSSSSSSTSSPVLSAPPYPASTPGASPRHRRVPLSPLSLPAGPADARRSQQQLPKQFSPTMSPTLSSITQGVPLDTSKLPTDQRLPPYPYSPPSLVIPTHPPTPKSLQQLPSQACLVQPSGGQPPGRQPHYGALYPPGSSGHGQQPYHRPINDFSLGNLEQFNMESPSTSLVLDPPAFSEGPGFLGSEGSMSGPQDPHVLNHQNLTHCSRHGSGPNIILTGDSSPGFSKEIAAALAGVPGFEVSASGLELGLGLEDELRMEPLGLEGLTMLSDPCALLPDPAVEDSFRSDRLQ

Variants of: B1
Conditions: with pp2ba_mouse Ppp3ca
In the case of P614G;I616A;L618A;T619A, the “effect of a mutation on the interaction” value is reported as “decreasing interaction strength”.
